Data reported in the supplement of paper PMC9170038.

System: K4 kissing-loop RNA reporter
Assay: apparent KD of K4 kissing-loop reporter; higher = weaker reporter binding
Details: Eterna round: R107
Method: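 RNA-MaP round R107: designed RNA switches with theophylline, tryptophan, arginine or FMN aptamers are transcribed on-chip within common flanks. They are titrated with a labelled K4 kissing-loop RNA reporter in RNA-MaP buffer (100 mM Tris pH 7.5, 80 mM KCl, 4 mM MgCl2), without ligand or with the indicated ligand. Median apparent KD per design.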

[1] = input ligand: theophylline 20 uM
[2] = input ligand: tryptophan 2.4 mM
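Note: bound reporter read as fluorescence of individual clusters on recovered sequencing chips by microscopy, with normalized cluster intensities fitted with a binding model.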

Sequence	apparent KD of K4 kissing-loop reporter (input ligand: FMN 200 uM) [nM]	apparent KD of K4 kissing-loop reporter (input ligand: arginine 13.2 mM) [nM]	apparent KD of K4 kissing-loop reporter (input ligand: none) [nM]	apparent KD of K4 kissing-loop reporter [1] [nM]	apparent KD of K4 kissing-loop reporter [2] [nM]
GCAGUGAUGUUGCGGAUGUACAGUGGCGUGCGAGGACCGGUACGGCCGCCACUCGUACAGAGCAAGCUAAUACAUCGAUAGGUGA [whbob_SS_Tryp_A_m4]	436	223	207	382	240
UUAUAACCCAGUGAUGUUGGGUAGCGGCCACGAGGACCGGUACGGCCGCCACUCGAGGUUUGACCAGUGAUGUUGGACUAUUUGG [Same state Tryptophan A GF 5]	163	134	156	147	47.1
AAGCGUAAAAUGGCGGACAUACUGCUCCCACGAGGACCGGUACGGCCGCCACUCGAAUGCGGCAGUGAUGUUGCCGCCUUAGCGU [KL-XTryp-A19]	84.6	77.5	79.1	75.2	76.1
GGUGACGACCAGAGGUGAUGUAUAGUAUCGCGAGGACCGGUACGGCCGCCACUCGUGAAGAGAAAGGAGUGAUGUUCCGUAAUGG [Kazoo C9]	241	217	289	289	108
GGUAGCAUGGCGGCCGCCACUUUUUUAGAUACCUACACAGAAAGCAGUGAUGUUGCUUGGUGGUAAAGGACCGGGCCAUGCUACC	149	131	136	137	105
AAGCAGUCCCUUGUUGUCAUCGAAGAUGAACGAGGACCGGUACGGCCGCCACUCGGAGUGAUGUUCCGAAGGCUGCAAAAUAAAA [MatMod 20 - Jieux - Exclusion - Tryptophan A]	109	112	116	115	205
GGUGUUGUUUGUGCUGUUUUCUUCGUUUCUCGAGGACCGGUACGGCCGCCACUCGAGUGAUGUUUGGGUAGCGAUCUUUGUUAGU [Bdazzled - #4- Exc. Tryptophan A]	430	256	345	339	385
AAGGUUCGUGGAAGGAGCGCCCGUGCGACUCGUUCACUAAGUGAAGUCCGAGUGAUGUUCGGGCAGGUAGGUCGCCACGGGCAAA [Atonenge]	164	133	152	153	153
UGAUACCAGACGGCCGCCACUCCUAGUGAUGUUAGGAACCUAAAAUAGCAUGUCAAAGACAUGCGGAGGACCGGGUCUGGUAUCU [TrypBX 23 #SwitchBubble #Palindromic #StaticStem]	111	92.1	104	90.3	254
AUUAAUAACUGAGGAUAUCGUUUUACUGUAGUGAUGUUACAGAAAAUGCACAUUAUAAUUUCUAUUCGAGAAGGCAGAAUAAUUA [JR_ExcFMNB_Sub013]	110	75.5	74.5	74.1	65.4
CCAGCAAAGCUGGUCGCCAAACAACGGGCACGAGGACCGGUACGGCCGCCACUCGUGAGGACGAGUGAUGUUCGUUCACGGGCGA	815	587	1690	602	302
AAUAAGCAUGGAAGGAGCGUAGUCCAGUGAUGUUGGAGUUAAAUACCAGUGAUGUUGGUUAUACAGGUAGGUCGCCAUAAAGCUU [Exclusion Arginine B Gf 6]	92.4	64.8	89.3	83.2	75.4
UCAAACGAUGGAAGGAGCGCUCGUCAGUCCUGCGAGUGAUGUUCGUGGGUAAAUAGUCGCGAGCAGGUAGGUCGCCAUCUUAAGC [Bisodi]	135	98.1	118	108	113
GAUUAAUAAGAGGAUACCAGUACUAAUAAAGUACAUUAAUAGUAGAGUGAUGUUCUAAAGUACCCUUGGCAGCUUAGAGUAAGUU [#08 K4 Theophylline B Exclusion]	128	224	157	226	97.5
CAUGGAGUGAUGCUCCAUGAUCGGGCUUGGCAGGAUAUGGGAUUUUCCAGAAGGGUCGAUCCCAGCGAGUGAUGUUCGCUGGUCU [Exclusion FMN A GF 26]	106	121	126	151	116
CGGAGUGAUGUUCCGUUAAUUAAUUAUUUACGAGGACCGGUACGGCCGCCACUCGAUUUUGCUUUUAUUUAAUGUUUGGAAAUUU [JR_SSTryptoA_Sub006]	135	143	142	146	101
UGGAGUUGACGAAAAGUCAACUCCAGAGAAGGAGCGGACGAAAGUCCAGGUAGGUCGCUCACUACCAGUGAUGUUGGUACUUGAA	220	335	255	449	218
AGUAUAGAGUCGGCCGCCACUGGUUUUAUGUGUGUCAAAUCUGGAUCAAAGUGAUGUUUUGAGACUAGGACCGGGACCAUUGUUA [#06 K4 Tryptophan B Exclusion]	160	139	145	131	206
CCAUUCUUUUACGAUACCAGUCUAAUAUAUUUAAUCAAAACCCUCGCCGAGUGAUGUUCGGACCCUUGGCAGCGUCUGCGAGAGG [ettyxtkmullin]	606	472	758	603	495
GGUAUCUAUACAGAUACCAGUCGUACAGCACCAUUACAGGUUAGUGAUGUUAACCUGUACGACCCUUGGCAGCUGUAUUAUAAUA [#15 K4 Theophylline B Exclusion]	94.3	88.7	86.8	91.4	85.2
CGAGUCCUGAGGAGUGAUGUUCCUCGGCCACGAGGACCGGUACGGCCGCCACUCGUUACUCGAGCUUAGUAGCUAGCACUAAGCC [Zaussora]	189	164	179	186	109
CCGGUUCCAACGCUGACUGAAGAACAUGAUACCAGUCGAGGACUCGACCCUUGGCAGCAUUAUAGAGUGAUGUUCGCUUCAGAAA [theeternabot_sameState_KL_Theo_A_15]	157	140	189	367	117

Sequence	apparent KD of K4 kissing-loop reporter (input ligand: FMN 200 uM) [nM]	apparent KD of K4 kissing-loop reporter (input ligand: arginine 13.2 mM) [nM]	apparent KD of K4 kissing-loop reporter (input ligand: none) [nM]	apparent KD of K4 kissing-loop reporter [1] [nM]	apparent KD of K4 kissing-loop reporter [2] [nM]
GGAUAGGAUAGAGGAUAUGGAAAACACAGAAAUGACUUGUUGUGUUUAUCCAUAGGGAGUGAUGUUCCAGAAGGCUGUCCUAUCG [MatMod 21 - Jieux - Exclusion - FMN B]	289	184	194	198	158
UAGUCCGAGUGAUGGUCAUCACGUGGCGGGCGAGGACCGGUACGGCCGCCACUCGACUUUGCAGUGAUGUUGCAAACCGGACAAU [Exclusion - Tryptophan A (Freestyle 21)]	229	185	249	224	193
UCUGCAAAGUCGGCCGCCACUCCGGGCCCUAUAAAUGGGCGCAGUGAUGUUGCGGCUAGGCCUCUGAGGACCGGGACUUUGUAGA [Atlesoqu]	87.5	54.3	100	132	246
AUUAAUUUCAGAGGAUAUCGUAAUUUUAUUUAAUUUAUUCAUUUAUGCAGUGAUGUUGCUAAUAUUCGAGAAGGCUGAUUUAUAA [JR_ExcFMNB_Sub007]	103	121	55.8	115	52.2
GUGCGUAAGUGAUGUUUACGUCAGCUCCGCAAGGAUAUCCUGAUUAGGAGAAGGUGCGGGAACUAAAGACGCUCGUUCUAGCAGG [theeternabot_exclusion_KL_FMN_A_33]	146	182	205	168	162
AAGCAGUCACUCGAAUCCAUCGAAGAUGGGCGAGGACCGGUACGGCCGCCACUCGGAGUGAUGUUCCGCAGACUGCAAAAUAAAA	636	402	863	580	478
UGUGAUGUUGUGAUGUUUAGUGUUGUUGGGCAGGAUAUUGUAGAGGCGAGAAGGGCUAGUGUGAUGUAUGAGUGAUGUUUGUAGU [kkollmullin]	127	111	246	177	186
GACUGGAGUGAUGUUCCAUUAACGAUCCUACGAGGACCGGUACGGCCGCCACUCGAAAUGCAGUGAUGUUGCAGCCAGCCGUACU [Exclusion Trptophan A GF 8]	157	180	162	192	142
UGUGGAGAAUAUGAUACCAGCAGUGAGAGAGAGGAAGUAUAGUGAUGUUAUAUGAGAGAAUGCCCUUGGCAGCAUAUGAAGAAGG [SSTheophylB.E]	174	120	148	138	115
AAACCAAUCAGAGGAUAUUCUUUAUUCGACAUAAAUUUCUAUAAAUUGCAGUGAUGUUGCAAUAUAGGAGAAGGCUGAUUGACAA [Exclusion FMN B Gf 12]	239	199	204	229	223
AAUAAGGUCGCCGAUACCAGCGCAGGCAGAGCAAAGCUCUGCCUGGUAGUGAUGUUACCGCGCCCUUGGCAGCGGUGGCACGACC [Omei KL Theo B SS C v5]	64.8	27.1	71.3	71.7	85.9
GAGCGGUAGAGGCUACCGCUAUUCUGAGAAGGAGCGCAGAUGACUGCAGGUAGGUCGCUUAGAGCUUGCAGUGAUGUUGCAAGUU [Inzarier]	178	176	191	181	181
AGACCACAAAGUGGUCAGUGUUCGCUGCGGCGAGGACCGGUACGGCCGCCACUCGCGAGUGAUGUUCGCGAGCGCAGCGAACACA [Omei KL Tryp A Exc A v3]	89.4	88.8	92.7	65	88.5
UUAGAGAUCUCAGGAUAUCAGUGAUGUUGUAAUCCAGAUCUGAGAUAGAAUUCUAUCUCAGAUCAAUGAGAAGGGAGAUCUCAUU [AK4.2 Exc FMN B]	306	601	723	576	591
ACACAGAGUUGCCGAGUGAUGUUCGGCUUACGAGGACCGGUACGGCCGCCACUCGUUACUCUGUGUUUUGGACACCAAGGCGUAG [Edvemaquan]	565	492	675	497	169
AAGGGCGGAACUUCCUCGCCGGAUAGAGAUACCAGCCCAGCAAAGGGCCCUUGGCAGCUCACUGACCUCAGUGAUGUUGAGGUUC [Riesrevere]	345	241	301	216	296
AGGAGUGAUGUUCCUACAUACACGGUCCGACGAGGACCGGUACGGCCGCCACUCGCGUCCCAGUGAUGUUGGGAUUUGGCGUACA [Exclusion Tryptophan A Gf 16]	162	168	180	141	144
AACUGUCAAGGCCAACAUUACUGAGGUGAUACCAGCAUCGAAAGAUGCCCUUGGCAGCACCAACUUGCAGUGAUGUUGCAAGUAA [BrourdMod 13 - Jieux - Exclusion - Theophylline A]	231	203	234	307	225
AAGGGCGGGACUUCCUCGCCGGAUAGAGAUACCAGCCCUGCAAAGGGCCCUUGGCAGCUCACUGACCUCAGUGAUGUUGAGGUUC [Maanveri]	252	210	234	209	223
UUAGUGACAAGUCAGAUUCUGACAAUUGAUACCAGAUAGAAUUCUAUCCCUUGGCAGCAGUGAUGUUGUUGCAAAUAGUCACAUU [AK3 Exc Theophylline A]	263	209	251	242	232
UGGGUGUAGUGAUGUUAUAUAGAGAGUGAUACCAGCUUAGAGAGAAGCCCUUGGCAGCAUAGAAGAGUAUCAUUGGAGGAGGAGG [ExTheophyl.Ay]	680	527	609	668	401
